{
  "source": "patent US20170176432A1",
  "about": "(OSAKA UNIVERSITY, published 2017)",
  "binders": {"B1": {"name": "HLA-DR (HLA-DRA*01:01/HLA-DRB1*15:01) (other, human)", "MHC II alpha": "not shown", "MHC II beta": "not shown", "notes": "whole, on cells; also called HLA-DR15"}, "B2": {"name": "HLA-DR (HLA-DRA*01:01/HLA-DRB4*01:03) (other, human)", "MHC II alpha": "not shown", "MHC II beta": "not shown", "notes": "whole, on cells; also called HLA-DR53"}, "B3": {"name": "HLA-DR (HLA-DRA*01:01/HLA-DRB3*02:02) (other, human)", "MHC II alpha": "not shown", "MHC II beta": "not shown", "notes": "whole, on cells"}, "B4": {"name": "HLA-DR (HLA-DRA*01:01/HLA-DRB1*14:06) (other, human)", "MHC II alpha": "not shown", "MHC II beta": "not shown", "notes": "whole, on cells"}},
  "key": {"human thyroglobulin (TG) [1]": {"target": "T1, human thyroglobulin (TG) (human, UniProt P01266 20-2768)", "T1 construct": "whole, on cells; the tag is not described", "T1 sequence (P01266 20-2768)": "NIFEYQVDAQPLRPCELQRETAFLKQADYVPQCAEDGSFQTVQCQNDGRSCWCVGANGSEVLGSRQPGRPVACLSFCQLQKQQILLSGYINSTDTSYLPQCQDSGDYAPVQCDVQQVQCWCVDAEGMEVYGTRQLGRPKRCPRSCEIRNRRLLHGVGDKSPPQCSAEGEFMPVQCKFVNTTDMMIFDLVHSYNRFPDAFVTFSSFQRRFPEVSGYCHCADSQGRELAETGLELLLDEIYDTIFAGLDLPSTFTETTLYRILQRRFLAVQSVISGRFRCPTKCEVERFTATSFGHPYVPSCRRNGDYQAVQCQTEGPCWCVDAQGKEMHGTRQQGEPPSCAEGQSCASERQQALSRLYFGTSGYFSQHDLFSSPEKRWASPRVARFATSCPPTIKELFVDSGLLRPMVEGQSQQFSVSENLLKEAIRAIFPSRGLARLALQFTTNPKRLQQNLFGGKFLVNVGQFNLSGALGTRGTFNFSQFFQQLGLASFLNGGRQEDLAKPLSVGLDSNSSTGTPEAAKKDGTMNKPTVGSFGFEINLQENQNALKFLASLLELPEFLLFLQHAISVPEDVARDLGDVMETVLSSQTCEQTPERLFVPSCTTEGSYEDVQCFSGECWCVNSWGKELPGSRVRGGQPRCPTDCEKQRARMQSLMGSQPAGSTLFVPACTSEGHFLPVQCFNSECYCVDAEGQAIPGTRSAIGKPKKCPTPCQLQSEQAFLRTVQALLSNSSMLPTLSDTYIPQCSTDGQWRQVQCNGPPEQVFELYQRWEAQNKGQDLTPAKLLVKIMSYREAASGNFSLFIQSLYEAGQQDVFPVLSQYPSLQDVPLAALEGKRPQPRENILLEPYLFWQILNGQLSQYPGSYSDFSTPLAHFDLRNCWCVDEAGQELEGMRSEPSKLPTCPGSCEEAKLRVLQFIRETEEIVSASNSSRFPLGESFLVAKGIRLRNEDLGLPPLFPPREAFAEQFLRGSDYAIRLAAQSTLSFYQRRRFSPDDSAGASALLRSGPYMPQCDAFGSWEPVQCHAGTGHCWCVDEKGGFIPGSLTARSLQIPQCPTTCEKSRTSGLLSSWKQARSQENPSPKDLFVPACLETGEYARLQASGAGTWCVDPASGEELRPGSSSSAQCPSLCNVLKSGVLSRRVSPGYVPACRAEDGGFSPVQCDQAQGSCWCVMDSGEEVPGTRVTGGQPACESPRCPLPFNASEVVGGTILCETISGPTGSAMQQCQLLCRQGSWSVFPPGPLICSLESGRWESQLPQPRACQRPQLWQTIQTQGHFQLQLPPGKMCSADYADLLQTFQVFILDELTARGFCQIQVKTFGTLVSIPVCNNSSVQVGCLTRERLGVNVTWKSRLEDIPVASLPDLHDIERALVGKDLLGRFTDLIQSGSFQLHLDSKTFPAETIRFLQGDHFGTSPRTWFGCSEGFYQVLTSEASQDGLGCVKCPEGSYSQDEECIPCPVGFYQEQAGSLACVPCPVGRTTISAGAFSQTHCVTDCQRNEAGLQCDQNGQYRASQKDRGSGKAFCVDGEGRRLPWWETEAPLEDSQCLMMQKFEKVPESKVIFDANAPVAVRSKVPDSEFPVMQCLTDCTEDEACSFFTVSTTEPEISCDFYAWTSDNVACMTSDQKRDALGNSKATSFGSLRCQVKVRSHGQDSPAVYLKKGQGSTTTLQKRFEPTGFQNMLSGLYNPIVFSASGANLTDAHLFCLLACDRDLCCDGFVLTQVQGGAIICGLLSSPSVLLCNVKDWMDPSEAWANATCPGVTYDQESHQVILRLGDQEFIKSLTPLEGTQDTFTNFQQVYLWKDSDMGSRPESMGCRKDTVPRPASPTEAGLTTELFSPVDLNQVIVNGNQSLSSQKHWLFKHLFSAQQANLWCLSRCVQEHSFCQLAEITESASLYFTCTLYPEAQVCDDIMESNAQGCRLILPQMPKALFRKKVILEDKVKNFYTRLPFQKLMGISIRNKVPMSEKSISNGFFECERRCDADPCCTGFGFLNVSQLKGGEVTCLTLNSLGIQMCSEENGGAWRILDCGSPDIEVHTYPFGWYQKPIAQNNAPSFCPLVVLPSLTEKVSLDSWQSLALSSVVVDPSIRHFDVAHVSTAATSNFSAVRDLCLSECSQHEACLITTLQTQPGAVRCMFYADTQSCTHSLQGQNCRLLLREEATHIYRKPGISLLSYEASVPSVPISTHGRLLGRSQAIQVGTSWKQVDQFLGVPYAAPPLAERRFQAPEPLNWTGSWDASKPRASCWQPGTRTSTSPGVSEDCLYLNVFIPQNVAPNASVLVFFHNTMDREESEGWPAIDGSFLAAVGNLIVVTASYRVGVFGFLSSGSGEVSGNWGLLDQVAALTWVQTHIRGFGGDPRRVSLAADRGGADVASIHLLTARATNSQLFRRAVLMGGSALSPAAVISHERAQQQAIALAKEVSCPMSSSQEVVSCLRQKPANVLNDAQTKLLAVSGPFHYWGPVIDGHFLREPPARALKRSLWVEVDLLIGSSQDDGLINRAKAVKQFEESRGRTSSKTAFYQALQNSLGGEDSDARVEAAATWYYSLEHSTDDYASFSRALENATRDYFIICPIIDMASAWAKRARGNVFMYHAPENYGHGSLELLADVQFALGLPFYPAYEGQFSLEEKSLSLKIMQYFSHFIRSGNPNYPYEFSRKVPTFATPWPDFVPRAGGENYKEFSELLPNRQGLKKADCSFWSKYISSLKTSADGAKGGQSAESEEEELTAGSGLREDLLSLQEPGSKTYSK", "experiment": "flow cytometry of surface TG (anti-histidine antibody) on 293T; HLA-DRB1*15:01"}, "[2]": {"target": "T2, human β2-glycoprotein I (β2-GPI) (human, UniProt P02749 20-345)", "T2 construct": "whole, on cells", "T2 sequence (looked up)": "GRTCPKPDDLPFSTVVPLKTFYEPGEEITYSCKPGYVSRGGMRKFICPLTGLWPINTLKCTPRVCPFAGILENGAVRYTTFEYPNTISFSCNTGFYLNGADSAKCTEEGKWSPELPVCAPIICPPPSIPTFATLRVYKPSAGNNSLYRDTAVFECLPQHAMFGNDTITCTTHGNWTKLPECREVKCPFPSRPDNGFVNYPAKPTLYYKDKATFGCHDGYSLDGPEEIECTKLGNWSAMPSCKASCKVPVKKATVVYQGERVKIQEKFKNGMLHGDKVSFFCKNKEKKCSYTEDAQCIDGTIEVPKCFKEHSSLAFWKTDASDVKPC", "experiment": "flow cytometry of surface β2-GPI on 293T; HLA-DRB1*15:01"}, "[3]": {"target": "T2, human β2-glycoprotein I (β2-GPI)", "experiment": "flow cytometry of surface β2-GPI on 293T; HLA-DRB4*01:03"}, "human thyroglobulin (TG) [4]": {"target": "T1, human thyroglobulin (TG)", "experiment": "flow cytometry of surface TG (anti-histidine antibody) on 293T; HLA-DRB4*01:03"}, "[5]": {"target": "T2, human β2-glycoprotein I (β2-GPI)", "experiment": "flow cytometry of surface β2-GPI on 293T; HLA-DRB3*02:02"}, "[6]": {"target": "T2, human β2-glycoprotein I (β2-GPI)", "experiment": "flow cytometry of surface β2-GPI on 293T; HLA-DRB1*14:06"}},
  "data": [
    {"binder": "B1", "values": [
      {"measurement": "binding result", "setting": "human thyroglobulin (TG) [1]", "result": "binds"},
      {"measurement": "binding result", "setting": "[2]", "result": "binds"}
    ]},
    {"binder": "B2", "values": [
      {"measurement": "binding result", "setting": "[3]", "result": "binds"},
      {"measurement": "binding result", "setting": "human thyroglobulin (TG) [4]", "result": "binds"}
    ]},
    {"binder": "B3", "values": [
      {"measurement": "binding result", "setting": "[5]", "result": "binds"}
    ]},
    {"binder": "B4", "values": [
      {"measurement": "binding result", "setting": "[6]", "result": "binds"}
    ]}
  ]
}
